The values that follow come from patent US20030073818A1 (MEDICAL COLLEGE OF GEORGIA RESEARCH INSTITUTE, published 2003).

B1: D1 receptor:GAL4 binding domain fusion protein pGBTD1421-435 (other, yeast;human, UniProt P04386 1-147, looked up)
chain: MKLLSSIEQACDICRLKKLKCSKEKPKCAKCLKNNWECRYSPKTKRSPLTRAHLTEVESRLERLEQLFLLIFPREDLDMILKMDSLQDIKALLTGLFVQDNVNKDAVTDRLASVETDMPLTLRQHRISATSSSEESSNKGQRQLTVSSVILDYDTDVSLEKI
B2: GAL4 Activation Domain (AD) protein encoded on the vector pGAD424 (other, yeast, UniProt P04386 768-881, looked up)
chain: ANFNQSGNIADSSLSFTFTNSSNGPNLITTQTNSQALSQPIASSNVHDNFMNNEITASKIDDGNNSKPLSPGWTDQTAYNAFGITTGMFNTTTMDDVYNYLFDDEDTPPNPKKE
B3: Calcyon:GAL4 AD fusion protein (encoded by pACTCalcyon) (other, not shown: large carriers)
chain: MVKLGCSFSGKPGKDPGDQDGAAMDSVPLISPLDISQLQPPLPDQVVIKTQTEYQLSSPDQQNFPDLEGQRLNCSHPEEGRRLPTARMIAFAMALLGCVLIMYKAIWYDQFTCPDGFLLRHKICTPLTLEMYYTEMDPERHRSILAAIGAYPLSRKHGTETPAAWGDGYRAAKEERKGPTQAGAAAAATEPPGKPSAKAEKEAARKAAGSAAPPPAQ
notes: Library clone from a human brain cDNA:GAL4 AD library; The 936 bp insert holds the whole 217 residue ORF; also called pACTP24; clone K37

Assay [1] has as its target B3. Description: yeast two-hybrid.
Assay [2] concerns the target T1, D1/GAL4 BD fusion protein (hD1 receptor residues 365-446 fused to the GAL4 DNA binding domain, pGBTD1) (yeast; human, UniProt P04386 1-147; P21728 365-446).
T1 construct: D1 segment is at the 3' end of the GAL4 BD open reading frame; also called pGBTD1365-446; D1:GAL4 fusion protein
Description: yeast two-hybrid, X-Gal colony filter assay.
Description: A nitrocellulose filter was placed on the plate to transfer the colonies to the filter. Cells were permeabilized by freezing in liquid nitrogen, and then soaked in buffer containing X-Gal.

In assay [3] the target is T1, D1/GAL4 BD fusion protein (hD1 receptor …). Description: yeast two-hybrid.

Turning to B1, in assay [1], the binding result was “binds”.

Regarding B2, the binding result in assay [2] is on record as “no binding”.

For B3, in assay [3], the binding result is reported as “binds”.
